Experimental findings from PMC10914600, “Synthesis of lipid-linked precursors of the bacterial cell wall is governed by a feedback control mechanism in Pseudomonas aeruginosa” (Nature Microbiology, 2024) are described below.

The data set deals with the molecule itself. The data set can be described thus: cryo-EM structure; YES(T23P) complex (EcMraY(T23P), protein E, SlyD) co-expressed and purified in DDM; 5 mg/ml in 10 mM HEPES pH 7.5, 75 mM NaCl, 2% glycerol, 5 mM βME, 0.03% DDM, 1 mM E. coli total lipid extract; focused refinement of MraY alone after particle subtraction, final map 3.8 Å.

B1: E. coli MraY(T23P) (enzyme)
chain: MLVWLAEHLVKYYSGFNVFSYLPFRAIVSLLTALFISLWMGPRMIAHLQKLSFGQVVRNDGPESHFSKRGTPTMGGIMILTAIVISVLLWAYPSNPYVWCVLVVLVGYGVIGFVDDYRKVVRKDTKGLIARWKYFWMSVIALGVAFALYLAGKDTPATQLVVPFFKDVMPQLGLFYILLAYFVIVGTGNAVNLTDGLDGLAIMPTVFVAGGFALVAWATGNMNFASYLHIPYLRHAGELVIVCTAIVGAGLGFLWFNTYPAQVFMGDVGSLALGGALGIIAVLLRQEFLLVIMGGVFVVETLSVILQVGSFKLRGQRIFRMAPIHHHYELKGWPEPRVIVRFWIISLMLVLIGLATLKVR
notes: MraY of E. coli, integral membrane enzyme that forms lipid I; The methods name the plasmid pRSFDuetEcMraY-E_(ID21) without the T23P change; also called ^EcMraY(T23P); MraY of the YES(T23P) complex; source: E. coli ∆slyD BL21(DE3), co-expressed with protein E and SlyD, purified as the YES complex (DDM, NiNTA, SEC)
For the protein B1, the stoichiometry N (as a rule, the number of molecules, sites or subunits per partner or assembly) was 2.
